Assay results: patent US20190382482A1 (GlaxoSmithKline, published 2019)

B1: IMP731 (antibody, human IgG1, kappa, V domains shown)
VH: QVQLKESGPGLVAPSQSLSITCTVSGFSLTAYGVNWVRQPPGKGLEWLGMIWDDGSTDYNSALKSRLSISKDNSKSQVFLKMNSLQTDDTARYYCAREGDVAFDYWGQGTTLTVSS
VL: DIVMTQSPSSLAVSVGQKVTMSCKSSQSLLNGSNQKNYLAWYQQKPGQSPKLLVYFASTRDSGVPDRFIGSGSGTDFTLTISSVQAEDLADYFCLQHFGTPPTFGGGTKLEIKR
notes: Chimeric anti-LAG-3 antibody, parent of the humanised variants; also called chimeric IMP731; chimeric control
B2: H5L7BW (antibody, human IgG1, kappa, V domains shown)
VH: QVQLQESGPGLVKPSETLSLTCTVSGFSLTAYGVNWIRQPPGKGLEWIGMIWDDGSTDYDSALKSRVTISVDTSKNQFSLKLSSVTAADTAVYYCAREGDVAFDYWGQGTLVTVSS
VL: DIQMTQSPSSLSASVGDRVTITCKSSQSLLNPSNQKNYLAWYQQKPGKAPKLLVYFASTRDSGVPSRFSGSGSGTDFTLTISSLQPEDFATYYCLQHFGTPPTFGQGTKLEIKR
modifications: afucosylated Fc glycan (expressed in BioWa Potelligent FUT8 knock-out CHO cell line)
notes: differs only by lack of fucose; also called afucosylated H5L7BW; afucosylated H5L7
B3: H5L7 (antibody, human IgG1, kappa, V domains shown)
VH: B2 VH
VL: B2 VL
notes: wild type fucosylated form; also called H5L7WT; fucosylated H5L7

What was measured:
[1] = target: T1, Human LAG-3 on cells (human, UniProt P18627 23-525); assay: Flow cytometry (MFI dose response) on human LAG-3 expressing EL4 cells
T1 construct: whole, on cells; also called human LAG-3 expressing EL4 cells
T1 sequence (looked up): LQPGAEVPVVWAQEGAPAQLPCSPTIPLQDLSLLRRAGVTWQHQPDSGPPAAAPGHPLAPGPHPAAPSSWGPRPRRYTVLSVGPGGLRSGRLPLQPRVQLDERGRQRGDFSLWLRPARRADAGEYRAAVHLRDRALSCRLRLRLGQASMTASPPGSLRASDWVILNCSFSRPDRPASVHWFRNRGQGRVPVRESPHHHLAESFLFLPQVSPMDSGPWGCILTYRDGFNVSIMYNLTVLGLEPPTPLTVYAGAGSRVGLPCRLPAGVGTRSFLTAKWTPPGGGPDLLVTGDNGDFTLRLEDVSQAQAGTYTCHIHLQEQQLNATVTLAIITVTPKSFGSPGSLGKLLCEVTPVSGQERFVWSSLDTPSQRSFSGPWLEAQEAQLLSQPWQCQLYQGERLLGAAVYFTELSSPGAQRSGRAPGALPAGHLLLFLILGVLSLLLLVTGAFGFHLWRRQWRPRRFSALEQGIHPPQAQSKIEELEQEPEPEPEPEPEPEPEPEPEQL
Experimental: Human LAG-3 expressing EL4 cells were incubated with either IMP731, H5L7WT or H5L7BW Alexa647-conjugated antibodies at varying concentrations of up to 50 μg/ml for 30 minutes at room temperature. Cells were washed with FACS buffer (PBS+0.5% BSA) to remove unbound antibody.
EL4 cells and CD3⁺ T cells were analysed by FACS using a Beckman Coulter FC 500 flow cytometer. FACS raw data were analysed using CXP Analysis software (Beckman Coulter). The data was initially plotted on a forward-scatter versus side-scatter plot and the population of cells of interest were gated. This gated population was then plotted as a histogram displaying fluorescence intensity and the mean fluorescence intensity (MFI) calculated. MFI values were then plotted in GraphPad Prism 5 software to generate dose response curves.

[2] = target: T2, Recombinant human LAG-3 ECD-His6 (human, UniProt P18627 23-433); assay: SPR Biacore T100, Anova comparison of KD, 3 runs
T2 construct: Entry holds the ECD with the C-terminal His6; also called LAG-3-His; recombinant human LAG-3-His
T2 sequence: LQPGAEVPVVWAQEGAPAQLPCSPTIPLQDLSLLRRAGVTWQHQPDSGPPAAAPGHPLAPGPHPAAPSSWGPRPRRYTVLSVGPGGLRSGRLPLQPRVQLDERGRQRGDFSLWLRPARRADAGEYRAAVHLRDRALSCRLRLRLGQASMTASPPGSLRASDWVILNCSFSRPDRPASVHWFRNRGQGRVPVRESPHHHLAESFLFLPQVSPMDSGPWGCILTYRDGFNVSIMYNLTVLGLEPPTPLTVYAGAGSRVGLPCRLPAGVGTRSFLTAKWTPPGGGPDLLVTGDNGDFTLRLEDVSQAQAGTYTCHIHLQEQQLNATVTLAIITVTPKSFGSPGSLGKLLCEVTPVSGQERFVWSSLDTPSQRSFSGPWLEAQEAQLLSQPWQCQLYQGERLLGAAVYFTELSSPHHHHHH
Experimental: (§1) Wild type fucosylated and afucosylated antibodies were compared for their ability to bind to recombinant human LAG-3 ECD with a C-terminal His6 (SEQ ID NO:51) using the Biacore™ T100 (GE Healthcare™). Protein A was immobilised on a CM5 chip by primary amine coupling. This surface was then used to capture the humanised antibodies. Recombinant human LAG-3 ECD-His6 was then passed over the captured antibodies at 32, 8, 2, 0.5 and 0.125 nM and regeneration was carried out using 50 mM NaOH. The binding curves were double referenced with buffer injection (i.e. 0 nM) and the data was fitted to the T100 analysis software using the 1:1 model. The run was carried out at 25° C., using HBS-EP as the running buffer.
(§2) In order to investigate the statistical significance of this kinetic data, this experiment was repeated 3 times with the same batch of the four antibodies and the chimeric control. KD, ka and kd parameters were each log (base 10) transformed prior to separate statistical analyses. For each parameter, a mixed model analysis of variance (‘Anova’) was performed on transformed data, including terms for Run (random block effect) and Antibody.

[3] = target: T2, Recombinant human LAG-3 ECD-His6; assay: SPR Biacore T100, Anova comparison of kd, 3 runs
Experimental: as §1, §2

Row | EC50 (read off the curve) [1] [µg/mL] | KD ratio against H5L7 [2] | kd ratio against H5L7 [3] | KD ratio against IMP731 [2] | fold decrease of KD against IMP731 [2] [fold] | fold decrease of kd against IMP731 [3] [fold] | kd ratio against IMP731 [3] | Binder
1 | ~0.01 | – | – | – | – | – | – | B1
2 | ~0.02 | 1.05 | 1.12 | – | – | – | – | B2
3 | ~0.02 | – | – | 0.0774 | 10 | ~10 | 0.155 | B3
